Consider three molecules from article doi:10.1101/2025.07.18.665471 (bioRxiv, 2025).

Broadly, the Kd is a measure of binding affinity in units of concentration. Read a high Kd as a looser complex. As usually defined, the stoichiometry N is a count of units in the complex or per binding partner.

In data set [1] the target is T1, DNAJC12, wild type, human, full-length (human, UniProt Q9UKB3 1-198). Briefly: SEC. In general terms: SEC sorts molecules by how far they enter the pores of the column.
T1 sequence (Q9UKB3 whole entry): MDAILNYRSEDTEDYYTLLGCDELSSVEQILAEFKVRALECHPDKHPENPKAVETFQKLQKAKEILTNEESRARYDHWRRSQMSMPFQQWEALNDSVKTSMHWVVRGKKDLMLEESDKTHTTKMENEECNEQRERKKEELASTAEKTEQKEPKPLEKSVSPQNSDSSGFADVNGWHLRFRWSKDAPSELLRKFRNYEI
Data set [2] concerns the target T1, DNAJC12, wild type, human, full-length. The data set is described as follows: BLI. (BLI is a label-free optical method that tracks binding on a fibre tip over time.)
The target is the same in data set [3]. The data set is described as follows: BLI. This is another data set of the same source.
The data set “SEC-MALS” concerns the molecule itself. Briefly: SEC-MALS.

Numbering of substitutions follows the chain as printed. In names and notes the source's numbering stands. Several values for one entry are separate records, joined by “and”; a condition that tells them apart may be missing. Identical values can stand only once. Like-named read-outs stand apart in the source and are kept apart here.

B1: PAH-p.R261Q, PKU-associated variant of phenylalanine hydroxylase (enzyme, human)
chain: MSTAVLENPGLGRKLSDFGQETSYIEDNCNQNGAISLIFSLKEEVGALAKVLRLFEENDVNLTHIESRPSRLKKDEYEFFTHLDKRSLPALTNIIKILRHDIGATVHELSRDKKKDTVPWFPRTIQELDRFANQILSYGAELDADHPGFKDPVYRARRKQFADIAYNYRHGQPIPRVEYMEEEKKTWGTVFKTLKSLYKTHACYEYNHIFPLLEKYCGFHEDNIPQLEDVSQFLQTCTGFRLRPVAGLLSSRDFLGGLAFQVFHCTQYIRHGSKPMYTPEPDICHELLGHVPLFSDRSFAQFSQEIGLASLGAPDEYIEKLATIYWFTVEFGLCKQGDSIKAYGAGLLSSFGELQYCLSEKPKLLPLELEKTAIQNYTVTEFQPLYYVAESFNDAKEKVRNFAATIPRPFSVRYDPYTQRIEVLDNTQQLKILADSINSEIGILCSALQKIK
In the case of B1, in data set [1], the binding result was “binds”.

B2: phenylalanine hydroxylase (PAH), wild type, human (enzyme, UniProt P00439 1-452, looked up)
chain: B1 chain with Q261R
modifications: biotin (EZ-Link NHS-PEG4-Biotin), for the BLI only
Turning to B2, the Kd amounted to 508 ± 59 nM in data set [2] and 139 ± 19 nM in data set [3]. In addition, the “stoichiometry N” value in the data set “SEC-MALS” is 4 and 8.

B3: MBP-PAH(RD), regulatory domain of PAH (PAH(1-112)) fused to maltose binding protein (domain or fragment, human, UniProt P00439 1-112, looked up)
chain: MSTAVLENPGLGRKLSDFGQETSYIEDNCNQNGAISLIFSLKEEVGALAKVLRLFEENDVNLTHIESRPSRLKKDEYEFFTHLDKRSLPALTNIIKILRHDIGATVHELSRD
For B3, the binding result in data set [1] is “binds”.
